Values of other authors in article PMC9180016.

Legend:
cytochrome c = cytochrome c (UniProt P99999)
p66Shc (Homo sapiens) = p66Shc (Homo sapiens) (UniProt P29353)

Chain of UniProt P99999 (P99999 2-105): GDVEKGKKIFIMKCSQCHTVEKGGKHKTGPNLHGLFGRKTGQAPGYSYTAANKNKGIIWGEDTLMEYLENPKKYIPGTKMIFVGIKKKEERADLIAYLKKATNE

Row | Substance | Ki (cytochrome c) | Kd (p66Shc (Homo sapiens))
1 | p66Shc (from UniProt P29353) | 1430 nM | 
2 | Mortalin (from UniProt P38646) |  | 858 nM
